According to PMC7272049:
Each block holds one substance with its values, some of them ahead of it.

Tests used:
B7-1 (Mus musculus) = B7-1 (Mus musculus) (UniProt Q00609); conditions: cited from earlier work
mB7-1 mIgG2a = mB7-1 mIgG2a (UniProt Q00609); assay: FACS titration; conditions: cells expressing PD-L1 titrated with recombinant B7-1 Fc-fusion; anti-mouse Alexa 488 secondary; single-site binding model
mPD-1 mIgG2a = mPD-1 mIgG2a (UniProt Q02242); assay: FACS titration; conditions: cells expressing PD-L1 titrated with recombinant PD-1 Fc-fusion; anti-mouse Alexa 488 secondary; single-site binding model
B7-1 (Homo sapiens) = B7-1 (Homo sapiens) (UniProt P33681); conditions: cited from earlier work

PD-L1, sequence (Q9EP73 19-239): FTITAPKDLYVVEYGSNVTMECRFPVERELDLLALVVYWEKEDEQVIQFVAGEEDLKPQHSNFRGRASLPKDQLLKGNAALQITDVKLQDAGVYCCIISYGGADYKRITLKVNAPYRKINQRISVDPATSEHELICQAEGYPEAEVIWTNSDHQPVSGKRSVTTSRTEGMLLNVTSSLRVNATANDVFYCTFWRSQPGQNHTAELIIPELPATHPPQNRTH
B7-1, sequence (P33681 35-242): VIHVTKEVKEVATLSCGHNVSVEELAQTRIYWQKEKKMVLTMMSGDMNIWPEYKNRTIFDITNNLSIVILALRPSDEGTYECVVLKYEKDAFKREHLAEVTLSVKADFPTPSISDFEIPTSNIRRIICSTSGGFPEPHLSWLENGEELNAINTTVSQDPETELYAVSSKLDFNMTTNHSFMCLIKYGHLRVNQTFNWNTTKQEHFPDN

Substance: PD-L1 (from UniProt Q9EP73)
Kd (B7-1 (Mus musculus)): 1.6 µM

other: Bmax (mB7-1 mIgG2a): 73.1
other: Bmax (mPD-1 mIgG2a): 93.4
Substance: WT mPD-L1 mCherry (from UniProt Q9EP73) D28R

Substance: B7-1 (from UniProt P33681)
Kd (B7-1 (Homo sapiens)): 35 µM
